Consider one protein from PMC3515676.

Common to all, as to assay: purified protein
What all share (format): biochemical, Homo sapiens
Conditions in all cases: 14 μM PAP[35S], 50 mM Mops pH 7.0, 37 °C

Substrate in data set [1]: C[C@H](CCCO)[C@H]1CC[C@H]2[C@@H]3[C@H](O)C[C@H]4C[C@H](O)CC[C@]4(C)[C@H]3C[C@H](O)[C@]12C
Substrate in data set [2]: C[C@H](CCC(=O)O)[C@H]1CC[C@H]2[C@@H]3CC[C@@H]4C[C@H](O)CC[C@]4(C)[C@H]3CC[C@]12C
Substrate in data set [3]: C[C@H](CCC(=O)NCC(=O)O)[C@H]1CC[C@H]2[C@@H]3[C@H](O)C[C@@H]4C[C@H](O)CC[C@]4(C)[C@H]3CC[C@]12C
Substrate in data set [4]: C[C@H](CCC(=O)O)[C@H]1CC[C@H]2[C@@H]3[C@H](O)C[C@@H]4C[C@H](O)CC[C@]4(C)[C@H]3CC[C@]12C

B1: human SULT2A1 (hSULT2A1) (Homo sapiens) (protein)
chain: MSDDFLWFEGIAFPTMGFRSETLRKVRDEFVIRDEDVIILTYPKSGTNWLAEILCLMHSKGDAKWIQSVPIWERSPWVESEIGYTALSETESPRLFSSHLPIQLFPKSFFSSKAKVIYLMRNPRDVLVSGYFFWKNMKFIKKPKSWEEYFEWFCQGTVLYGSWFDHIHGWMPMREEKNFLLLSYEELKQDTGRTIEKICQFLGKTLEPEELNLILKNSSFQSMKENKMSNYSLLSVDYVVDKAQLLRKGVSGDWKNHFTVAQAEDFDKLFQEKMADLPRELFPWE
Regarding B1, the Km (usually the concentration of substrate that gives half-maximal velocity) in data set [1] came to 49.38 ± 4.62 µM; in data set [2], 8.36 ± 0.39 µM; in data set [3], 36.73 ± 2.47 µM; in data set [4], 42.30 ± 2.97 µM. Also, the Vmax (commonly the rate approached at saturating substrate) in data set [1] worked out at 0.00549 µmol/min/mg; in data set [2], 0.036 µmol/min/mg; in data set [3] it was 0.0038 µmol/min/mg; in data set [4], 0.00395 µmol/min/mg.
